One data set is described as follows: MicroPET imaging. Conditions: female, athymic nude, mouse, in vivo, 100 uCi, total radioactivity. Type of data set: in vivo, mouse.
The subject of data set [1] is MDA-MB-435 tumor-bearing mice. In words: MicroPET imaging. The note with it: co-injection with 300 µg unlabeled c(RGDfk) per mouse. Type of data set: in vivo, mouse.

Molecules are shown by their SMILES.

`CC(=O)N(O)CCCCCNC(=O)CCC(=O)N(O)CCCCCNC(=O)CCC(=O)N(O)CCCCCNC(=S)Nc1ccc(NC(=S)NCCOCCOCCOCCOCCC(=O)N[C@@H](CCC(=O)NCCOCCOCCOCCOCCC(=O)NCCCC[C@@H]2NC(=O)[C@@H](Cc3ccccc3)NC(=O)[C@H](CC(=O)O)NC(=O)CNC(=O)[C@H](CCCNC(=N)N)NC2=O)C(=O)NCCOCCOCCOCCOCCC(=O)NCCCC[C@@H]2NC(=O)[C@@H](Cc3ccccc3)NC(=O)[C@H](CC(=O)O)NC(=O)CNC(=O)[C@H](CCCNC(=N)N)NC2=O)cc1` [^89Zr-Df-[FK]2-3PEG4, metal not drawn]: in the data set “MicroPET imaging”, the tissue to tissue ratio at 0.5 h amounted to 12.6 ± 1.07, the tissue to tissue ratio at 1 h is 16.2 ± 3.23, the tissue to tissue ratio at 2 h stood at 18.2 ± 2.52 and the tissue to tissue ratio at 4 h is 19.7 ± 3.99. The tissue to tissue ratio at 24 h in “MicroPET imaging” was 10.8 ± 1.31. In addition, in the data set “MicroPET imaging” (SD), the tissue uptake at 0.5 h was 3.98 ± 0.5 %ID/g, the tissue uptake at 2 h worked out at 4.72 ± 0.66 %ID/g, the tissue uptake at 4 h was determined as 4.47 ± 0.81 %ID/g and the tissue uptake at 24 h was determined as 2.2 ± 0.26 %ID/g. For the same molecule, the “decrease of tumor uptake (PET) by blocking” value in data set [1] is listed as “approximately 90%”.

The record behind these values is PMC3137711 (Molecular imaging and biology : MIB : the official …, 2011).
